Assays:
murine CD1a (mouse) = assay: flow cytometry on mouse thymocytes, K-S statistics
murine CD1d (mouse) = murine CD1d (mouse) (UniProt P11609); assay: flow cytometry on mouse thymocytes, K-S statistics
Sequence of murine CD1d (mouse) (P11609 22-336): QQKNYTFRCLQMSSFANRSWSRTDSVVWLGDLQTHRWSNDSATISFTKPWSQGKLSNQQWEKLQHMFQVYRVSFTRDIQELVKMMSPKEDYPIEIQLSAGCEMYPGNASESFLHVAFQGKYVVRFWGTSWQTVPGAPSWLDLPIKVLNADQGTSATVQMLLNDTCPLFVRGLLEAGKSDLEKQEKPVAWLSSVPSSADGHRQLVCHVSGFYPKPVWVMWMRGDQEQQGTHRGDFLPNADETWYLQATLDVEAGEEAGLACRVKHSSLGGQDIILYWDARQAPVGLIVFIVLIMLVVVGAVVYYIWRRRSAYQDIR

D-value (murine CD1a (mouse)): 0.03
D-value (murine CD1d (mouse)): 0.03
Substance: Positive control (mouse anti-human CD1a-FITC) (antibody)
